Among the data in US20220098307A1 (WUHAN YZY BIOPHARMA, published 2022) are EC50 values, retold here.

One assay has as its target T1, Human CD3ε (human, UniProt P07766 23-126).
T1 construct: CD3 on T cells isolated from human whole blood
Description: flow cytometry, human T cells. In a few lines: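 Cell binding by flow cytometry: antigen-positive tumor cells (e.g. MM.1S or RPMI 8226 for CD38) or CD3+ T cells, 2×10⁵/well, with antibody 3-fold diluted over 11 points from 3000 nM, 2 h at 4° C with shaking.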

The next assay has as its target T2, human CEA (human, UniProt P06731 35-685).
T2 sequence: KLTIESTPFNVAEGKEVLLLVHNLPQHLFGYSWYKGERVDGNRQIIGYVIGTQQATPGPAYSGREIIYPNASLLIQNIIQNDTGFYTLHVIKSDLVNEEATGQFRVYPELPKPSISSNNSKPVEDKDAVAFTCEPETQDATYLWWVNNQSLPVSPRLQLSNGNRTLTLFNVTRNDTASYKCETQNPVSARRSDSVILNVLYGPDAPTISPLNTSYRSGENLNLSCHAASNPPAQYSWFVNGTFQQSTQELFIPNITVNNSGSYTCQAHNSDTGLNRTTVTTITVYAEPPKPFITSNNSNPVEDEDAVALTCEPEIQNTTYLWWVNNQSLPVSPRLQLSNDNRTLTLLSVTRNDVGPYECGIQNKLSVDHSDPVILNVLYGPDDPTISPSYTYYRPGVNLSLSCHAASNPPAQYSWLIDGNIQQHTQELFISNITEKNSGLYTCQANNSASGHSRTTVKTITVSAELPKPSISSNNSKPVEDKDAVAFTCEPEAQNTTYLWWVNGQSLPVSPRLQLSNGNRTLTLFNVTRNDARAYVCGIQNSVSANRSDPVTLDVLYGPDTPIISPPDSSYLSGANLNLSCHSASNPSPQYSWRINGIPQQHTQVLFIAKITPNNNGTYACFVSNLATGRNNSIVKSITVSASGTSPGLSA
Description: flow cytometry, human tumor cells (CEA+). An excerpt: 1) Cell preparation: T cells isolated from CD3-positive human whole blood were used for a CD3 end affinity detection of multifunctional antibody molecule; positive tumor cells of corresponding antigen were used for detecting affinity of tumor antigen; for example, CD38-positive MM. 1S cells (purchased from the Cell Resource Center of Shanghai Institutes for Biological Sciences, Chinese Academy of Sciences) or RPMI 8226 cells (purchased from the Cell Resource Center of Shanghai Institutes for Biological Sciences, Chinese Academy of Sciences) were used for CD38 antigen detection, and PD-L1 positive H358 cells (purchased from the Cell Resource Center of Shanghai Institutes for Biological Sciences, Chinese Academy of Sciences) were used for PD-L1 antigen detection, and so on. The cells were resuspended with 1% FBS-PBS, adjusted to a density of 4×10⁶/ml, and 50 μl of cells were taken from each well, and then plated at 2×10⁵ per well. Cell plating was operated on ice
2) Addition of the antibody: according to the experimental design, the antibody was diluted gradually, and dilution of antibody was operated on ice. For example, the initial concentration of antibody for dilution was 3000 nM, and the antibody was diluted by 3 times with 11 concentration gradients. The diluted antibody was added to a cell well at 50 μl per well, mixed well, and shaked and incubated at 4° C. 1100 rpm/min for 2 h; after washing, the cells were resuspend in 1% FBS-PBS, and a diluted secondary antibody PE anti-human IgG FC (Biolegend, 409304) was added with a final concentration of 8 ug/ml and a volume of 50 μl/well. At the same time, a well only added with cells and secondary antibody was set as a control, the components were mixed well, and incubated under shaking at 1100 rpm/min at 4° C. for 1 h;
5) Data analysis: the data was analyzed by a flow analysis software FlowJo 7.6 thereby obtaining an average fluorescence intensity of the specific antibody concentration, plotted by a Graphpad Prism 5 with the antibody concentration (nM) as an abscissa and the average fluorescence intensity as an ordinate; the EC50 value was calculated by the method of One site—Specific binding, and the EC50 value indicated the cell affinity of the antibody to the corresponding target antigen.

B1: CEA-M3-G2D (bispecific antibody)
chain 1: QVQLVQSGSELKKPGASVKVSCKASGYTFTVFGMNWVRQAPGQGLEWMGWINTKTGEATYVEEFKGRFVFSLDTSVSTAYLQISSLKADDTAVYYCARWDFYDYVEAMDYWGQGTTVTVSSASTKGPSVFPLAPSSKSTSGGTAALGCLVKDYFPEPVTVSWNSGALTSGVHTFPAVLQSSGLYSLSSVVTVPSSSLGTQTYICNVNHKPSNTKVDKKVEPKSCGGGGSGGGGSQVQLVESGGGVVQPGRSLRLSCAASGFTFSTYAMNWVRQAPGKGLEWVARIRSKYNNYATYYADSVKDRFTISRDDSKNTLYLQMNSLRAEDTAVYYCARHGNFGNSYVSWFAYWGQGTLVTVSSASVAAPSVFIFPPSDEQLKSGTASVVCLLNNFYPREAKVQWKVDNALQSGNSQESVTEQDSKDSTYSLSSTLTLSKADYEKHKVYACEVTHQGLSSPVTKSFNRGECDKTHTCPPCPAPPVAGPSVFLFPPKPKDTLMISRTPEVTCVVVDVSHEAPEVQFNWYVDGVEVHNAKTKPREEQFNSTFRVVSVLTVVHQDWLNGKEYKCKVSNKGLPAPIEKTISKTKGQPREPQVYTLPPCRDELTKNQVSLWCLVKGFYPSDIAVEWESNGQPENNYKTTPPVLDSDGSFFLYSKLTVDKSRWQQGNVFSCSVMHEALHNHYTQKSLSLSPGK
chain 2: QTVVTQEPSLTVSPGGTVTLTCRSSTGAVTTSNYANWVQQKPGQAPRGLIGGTNKRAPGVPARFSGSLLGGKAALTLSGVQPEDEAEYYCALWYSNLWVFGGGTKVEIKSSASTKGPSVFPLAPSSKSTSGGTAALGCLVKDYFPEPVTVSWNSGALTSGVHTFPAVLQSSGLYSLSSVVTVPSSSLGTQTYICNVNHKPSNTKVDKKVEPKSC
heavy: QVQLVQSGSELKKPGASVKVSCKASGYTFTVFGMNWVRQAPGQGLEWMGWINTKTGEATYVEEFKGRFVFSLDTSVSTAYLQISSLKADDTAVYYCARWDFYDYVEAMDYWGQGTTVTVSSASTKGPSVFPLAPSSKSTSGGTAALGCLVKDYFPEPVTVSWNSGALTSGVHTFPAVLQSSGLYSLSSVVTVPSSSLGTQTYICNVNHKPSNTKVDKKVEPKSCDKTHTCPPCPAPPVAGPSVFLFPPKPKDTLMISRTPEVTCVVVDVSHEAPEVQFNWYVDGVEVHNAKTKPREEQFNSTFRVVSVLTVVHQDWLNGKEYKCKVSNKGLPAPIEKTISKTKGQPREPQVCTLPPSRDELTKNQVSLSCAVKGFYPSDIAVEWESNGQPENNYKTTPPVLDSDGSFFLVSKLTVDKSRWQQGNVFSCSVMHEALHNRFTQKSLSLSPGK
light: DIQMTQSPSSLSASVGDRVTITCKASQNVGTNVAWYQQKPGKAPKLLIYSASYRYSGVPSRFSGSGSGTDFTFTISSLQPEDIATYYCHQYYTYPLFTFGQGTKVEIKRTVAAPSVFIFPPSDEQLKSGTASVVCLLNNFYPREAKVQWKVDNALQSGNSQESVTEQDSKDSTYSLSSTLTLSKADYEKHKVYACEVTHQGLSSPVTKSFNRGEC
notes: structure 3; CEA x CD3; CH2 G2DCH2
As for B1, the EC50 with Human CD3ε turned out to be 670 nM; in the assay with human CEA it was 38.4 nM.

B2: CEA-M3-PG2 (bispecific antibody)
chain 1: QVQLVQSGSELKKPGASVKVSCKASGYTFTVFGMNWVRQAPGQGLEWMGWINTKTGEATYVEEFKGRFVFSLDTSVSTAYLQISSLKADDTAVYYCARWDFYDYVEAMDYWGQGTTVTVSSASTKGPSVFPLAPSSKSTSGGTAALGCLVKDYFPEPVTVSWNSGALTSGVHTFPAVLQSSGLYSLSSVVTVPSSSLGTQTYICNVNHKPSNTKVDKKVEPKSCGGGGSGGGGSQVQLVESGGGVVQPGRSLRLSCAASGFTFSTYAMNWVRQAPGKGLEWVARIRSKYNNYATYYADSVKDRFTISRDDSKNTLYLQMNSLRAEDTAVYYCARHGNFGNSYVSWFAYWGQGTLVTVSSASVAAPSVFIFPPSDEQLKSGTASVVCLLNNFYPREAKVQWKVDNALQSGNSQESVTEQDSKDSTYSLSSTLTLSKADYEKHKVYACEVTHQGLSSPVTKSFNRGECDKTHTCPPPPAPPVAGPSVFLFPPKPKDTLMISRTPEVTCVVVDVSHEDPEVQFNWYVDGVEVHNAKTKPREEQFNSTFRVVSVLTVVHQDWLNGKEYKCKVSNKGLPAPIEKTISKTKGQPREPQVYTLPPCRDELTKNQVSLWCLVKGFYPSDIAVEWESNGQPENNYKTTPPVLDSDGSFFLYSKLTVDKSRWQQGNVFSCSVMHEALHNHYTQKSLSLSPGK
chain 2: QTVVTQEPSLTVSPGGTVTLTCRSSTGAVTTSNYANWVQQKPGQAPRGLIGGTNKRAPGVPARFSGSLLGGKAALTLSGVQPEDEAEYYCALWYSNLWVFGGGTKVEIKSSASTKGPSVFPLAPSSKSTSGGTAALGCLVKDYFPEPVTVSWNSGALTSGVHTFPAVLQSSGLYSLSSVVTVPSSSLGTQTYICNVNHKPSNTKVDKKVEPKSC
heavy: QVQLVQSGSELKKPGASVKVSCKASGYTFTVFGMNWVRQAPGQGLEWMGWINTKTGEATYVEEFKGRFVFSLDTSVSTAYLQISSLKADDTAVYYCARWDFYDYVEAMDYWGQGTTVTVSSASTKGPSVFPLAPSSKSTSGGTAALGCLVKDYFPEPVTVSWNSGALTSGVHTFPAVLQSSGLYSLSSVVTVPSSSLGTQTYICNVNHKPSNTKVDKKVEPKSCDKTHTCPPPPAPPVAGPSVFLFPPKPKDTLMISRTPEVTCVVVDVSHEDPEVQFNWYVDGVEVHNAKTKPREEQFNSTFRVVSVLTVVHQDWLNGKEYKCKVSNKGLPAPIEKTISKTKGQPREPQVCTLPPSRDELTKNQVSLSCAVKGFYPSDIAVEWESNGQPENNYKTTPPVLDSDGSFFLVSKLTVDKSRWQQGNVFSCSVMHEALHNRFTQKSLSLSPGK
light: DIQMTQSPSSLSASVGDRVTITCKASQNVGTNVAWYQQKPGKAPKLLIYSASYRYSGVPSRFSGSGSGTDFTFTISSLQPEDIATYYCHQYYTYPLFTFGQGTKVEIKRTVAAPSVFIFPPSDEQLKSGTASVVCLLNNFYPREAKVQWKVDNALQSGNSQESVTEQDSKDSTYSLSSTLTLSKADYEKHKVYACEVTHQGLSSPVTKSFNRGEC
notes: structure 3; CEA x CD3; CH2 PG2CH2
As to B2, the EC50 worked out at 654 nM with Human CD3ε and 41.9 nM with human CEA.

B3: CEA-M3-GG2 (bispecific antibody)
chain 1: QVQLVQSGSELKKPGASVKVSCKASGYTFTVFGMNWVRQAPGQGLEWMGWINTKTGEATYVEEFKGRFVFSLDTSVSTAYLQISSLKADDTAVYYCARWDFYDYVEAMDYWGQGTTVTVSSASTKGPSVFPLAPSSKSTSGGTAALGCLVKDYFPEPVTVSWNSGALTSGVHTFPAVLQSSGLYSLSSVVTVPSSSLGTQTYICNVNHKPSNTKVDKKVEPKSCGGGGSGGGGSQVQLVESGGGVVQPGRSLRLSCAASGFTFSTYAMNWVRQAPGKGLEWVARIRSKYNNYATYYADSVKDRFTISRDDSKNTLYLQMNSLRAEDTAVYYCARHGNFGNSYVSWFAYWGQGTLVTVSSASVAAPSVFIFPPSDEQLKSGTASVVCLLNNFYPREAKVQWKVDNALQSGNSQESVTEQDSKDSTYSLSSTLTLSKADYEKHKVYACEVTHQGLSSPVTKSFNRGECDKTHTCPPGPAPPVAGPSVFLFPPKPKDTLMISRTPEVTCVVVDVSHEDPEVQFNWYVDGVEVHNAKTKPREEQFNSTFRVVSVLTVVHQDWLNGKEYKCKVSNKGLPAPIEKTISKTKGQPREPQVYTLPPCRDELTKNQVSLWCLVKGFYPSDIAVEWESNGQPENNYKTTPPVLDSDGSFFLYSKLTVDKSRWQQGNVFSCSVMHEALHNHYTQKSLSLSPGK
chain 2: QTVVTQEPSLTVSPGGTVTLTCRSSTGAVTTSNYANWVQQKPGQAPRGLIGGTNKRAPGVPARFSGSLLGGKAALTLSGVQPEDEAEYYCALWYSNLWVFGGGTKVEIKSSASTKGPSVFPLAPSSKSTSGGTAALGCLVKDYFPEPVTVSWNSGALTSGVHTFPAVLQSSGLYSLSSVVTVPSSSLGTQTYICNVNHKPSNTKVDKKVEPKSC
heavy: QVQLVQSGSELKKPGASVKVSCKASGYTFTVFGMNWVRQAPGQGLEWMGWINTKTGEATYVEEFKGRFVFSLDTSVSTAYLQISSLKADDTAVYYCARWDFYDYVEAMDYWGQGTTVTVSSASTKGPSVFPLAPSSKSTSGGTAALGCLVKDYFPEPVTVSWNSGALTSGVHTFPAVLQSSGLYSLSSVVTVPSSSLGTQTYICNVNHKPSNTKVDKKVEPKSCDKTHTCPPGPAPPVAGPSVFLFPPKPKDTLMISRTPEVTCVVVDVSHEDPEVQFNWYVDGVEVHNAKTKPREEQFNSTFRVVSVLTVVHQDWLNGKEYKCKVSNKGLPAPIEKTISKTKGQPREPQVCTLPPSRDELTKNQVSLSCAVKGFYPSDIAVEWESNGQPENNYKTTPPVLDSDGSFFLVSKLTVDKSRWQQGNVFSCSVMHEALHNRFTQKSLSLSPGK
light: DIQMTQSPSSLSASVGDRVTITCKASQNVGTNVAWYQQKPGKAPKLLIYSASYRYSGVPSRFSGSGSGTDFTFTISSLQPEDIATYYCHQYYTYPLFTFGQGTKVEIKRTVAAPSVFIFPPSDEQLKSGTASVVCLLNNFYPREAKVQWKVDNALQSGNSQESVTEQDSKDSTYSLSSTLTLSKADYEKHKVYACEVTHQGLSSPVTKSFNRGEC
notes: structure 3; CEA x CD3; CH2 GG2CH2
For the molecule B3, the EC50 in the assay with Human CD3ε was 695 nM; in the assay with human CEA, 39.1 nM.
